Earlier results as cited in patent US20070155650A1, “Use of cathepsin z inhibitors for the treatment of rhuematoid arthritis and other autoimmune diseases” (AVENTIS PHARMACEUTICALS INC., priority 2003, published 2007).
Like-named read-outs stand apart in the source and are kept apart here.

Tests used:
Cathepsin Z = Cathepsin Z (Homo sapiens, UniProt Q9UBR2); details: result in words
Cathepsin B = Cathepsin B (Homo sapiens, UniProt P07858); details: result in words

Chain of Cathepsin Z (Q9UBR2 62-303): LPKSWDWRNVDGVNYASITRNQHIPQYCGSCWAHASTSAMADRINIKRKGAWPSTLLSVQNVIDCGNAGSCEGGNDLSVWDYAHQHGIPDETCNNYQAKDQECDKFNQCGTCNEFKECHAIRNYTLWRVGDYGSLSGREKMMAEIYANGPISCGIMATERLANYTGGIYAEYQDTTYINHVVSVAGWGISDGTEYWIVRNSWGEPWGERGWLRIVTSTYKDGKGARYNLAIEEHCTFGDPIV

## CCCNC(=O)[C@H]1O[C@@H]1C(=O)N[C@H](C(=O)N1CCC[C@H]1C(=O)O)[C@@H](C)CC [CA-074]
Cathepsin Z
  Cathepsin Z activity inhibited or not: inhibited
Cathepsin B
  Cathepsin B activity inhibited: block Cathepsin B activity
Cathepsin B; listed as CA-704
  Cathepsin B activity inhibited: known synthetic inhibitors of Cathepsin B

B1: stefin B: protein inhibitor shown to inhibit Cathepsin Z activity (protein, UniProt P04080 1-98, looked up)
Cystatin-B: MMCGAPSATQPATAETQHIADQVRSQLEEKENKKFPVFKAVSFKSQVVAGTNYFIKVHVGDEDFVHLRVFQSLPHENKPLTLSNYQTNKAKHDELTYF
Cathepsin Z
  Cathepsin Z activity inhibited or not: inhibited

B2: stefin A: protein inhibitor shown to inhibit Cathepsin Z activity (protein, UniProt P01040 1-98, looked up)
Cystatin-A: MIPGGLSEAKPATPEIQEIVDKVKPQLEEKTNETYGKLEAVQYKTQVVAGTNYYIKVRAGDNKYMHLKVFKSLPGQNEDLVLTGYQVDKNKDDELTGF
Cathepsin Z
  Cathepsin Z activity inhibited or not: inhibited

B3: chicken cystatin: protein inhibitor shown to inhibit Cathepsin Z activity (protein, UniProt P01038 24-139, looked up)
Cystatin: SEDRSRLLGAPVPVDENDEGLQRALQFAMAEYNRASNDKYSSRVVRVISAKRQLVSGIKYILQVEIGRTTCPKSSGDLQSCEFHDEPEMAKYTTCTFVVYSIPWLNQIKLLESKCQ
Cathepsin Z
  Cathepsin Z activity inhibited or not: inhibited

B4: cystatin C: protein inhibitor shown to inhibit Cathepsin Z activity (protein, UniProt P01034 27-146, looked up)
Cystatin-C: SSPGKPPRLVGGPMDASVEEEGVRRALDFAVGEYNKASNDMYHSRALQVVRARKQIVAGVNYFLDVELGRTTCTKTQPNLDNCPFHDQPHLKRKAFCSFQIYAVPWQGTMTLSKSTCQDA
Cathepsin Z
  Cathepsin Z activity inhibited or not: inhibited
